This passage reports Kd, percent bound to RBCs in blood and inhibition of agglutination of mouse RBCs loaded with Ter119 mAb results from patent publication US20260258388A1 (REGENTS OF THE UNIVERSITY OF MICHIGAN, published 2026).

Assay [1] deals with Ly76 (Ter119 antigen) on mouse red blood cells (mouse). Kind of assay: binding assay using mouse RBC ghosts.
The target is the same in assay [2]. Briefly: 125I-labelled protein injected in mice; radioactivity in RBC pellet vs plasma 1 hour after injection.
The target is the same in assay [3]. Kind of assay: cell-based or functional assay.
For assay [4] the target is unchanged. Briefly: binding assay on mouse RBCs.
The target of assay [5] is T1, human FcγRIIA (human, UniProt P12318 34-317).
T1 construct: whole, on cells; also called hFcγRIIA; platelet FcγRIIA
T1 sequence (looked up): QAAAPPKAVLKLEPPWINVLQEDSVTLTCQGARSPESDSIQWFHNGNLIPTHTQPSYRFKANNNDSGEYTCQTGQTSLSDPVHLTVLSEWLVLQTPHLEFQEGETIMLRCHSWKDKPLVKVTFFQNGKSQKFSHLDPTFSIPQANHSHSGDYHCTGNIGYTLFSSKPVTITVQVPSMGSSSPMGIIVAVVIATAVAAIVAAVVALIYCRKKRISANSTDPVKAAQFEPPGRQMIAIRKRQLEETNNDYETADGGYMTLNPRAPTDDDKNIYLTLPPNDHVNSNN
Kind of assay: flow cytometry, human platelets, His-tagged protein detected with Alexa 488 anti-His antibody.

For assay [6], the target named is T1, human FcγRIIA. Kind of assay: flow cytometry, THP-1 cells. A general note: In flow cytometry, cells or beads pass a laser one at a time.
The target of assay [7] is T1, human FcγRIIA. Kind of assay: flow cytometry, human platelets.
The target in assay [8] is T1, human FcγRIIA. Briefly: flow cytometry, washed platelets of transgenic mice expressing human FcγRIIA.

What is called Kd is the constant that tells how readily two partners part at equilibrium. Read a high Kd as a looser complex.

In assay [1], Ter119 scFv yielded a Kd of 30 nM.
On to Ter119 scFv-IdeS fusion protein, for which, in assay [2], the percent bound to RBCs in blood was > 98%. This molecule also registered an inhibition of agglutination of mouse RBCs loaded with Ter119 mAb in assay [3] of 1.25 nM. The Kd in assay [1] was found to be 26 nM; in assay [4] it was 25 nM.

B1: scIV.3-IdeS (scFv)
chain: QVQLVQSGAEVKKPGASVKVSCKASGYTFTNYGMNWVRQAPGQRLEWMGWLNTYTGESWYPDDFKGRVTITRDTSASTAYMELSSLRSEDTAVYYCARGDYGYDDPLDYWGQGTLVTVSSGAGGSGGGGSGGGGSGGGGSDIVMTQSPLSLPVTPGEPASISCRSSKSLLHTNQNTYLHWFLQKPGQSPQLLIYRMSVLASGVPDRFSGSGSGTDFTLKISRVEAEDVGVYYCMQHLEYPLTFGQGTKLEIKRGSSSGLPETGGGSSDSFSANQEIRYSEVTPYHVTSVWTKGVTPPANFTQGEDVFHAPYVANQGWYDITKTFNGKDDLLCGAATAGNMLHWWFDQNKDQIKRYLEEHPEKQKINFNGEQMFDVKEAIDTKNHQLDSKLFEYFKEKAFPYLSTKHLGVFPDHVIDMFINGYRLSLTNHGPTPVKEGSKDPRGGIFDAVFTRGDQSKLLTSRHDFKEKNLKEISDLIKKELTEGKALGLSHTYANVRINHVINLWGADFDSNGNLKAIYVTDSDSNASIGMKKYFVGVNSAGKVAISAKEIKEDNIGAQVLGLFTLSTGQDSWNQTNHHHHHH
notes: also called IV.3-IdeS conjugate; His-tagged scIV.3-IdeS
With B1, the Kd with human FcγRIIA [5] was 1.3 nM.

B2: scIV.3 (single-chain variable fragment of IV.3, scIV.3-LPETGG) (scFv)
scFv: QVQLVQSGAEVKKPGASVKVSCKASGYTFTNYGMNWVRQAPGQRLEWMGWLNTYTGESWYPDDFKGRVTITRDTSASTAYMELSSLRSEDTAVYYCARGDYGYDDPLDYWGQGTLVTVSSGAGGSGGGGSGGGGSGGGGSDIVMTQSPLSLPVTPGEPASISCRSSKSLLHTNQNTYLHWFLQKPGQSPQLLIYRMSVLASGVPDRFSGSGSGTDFTLKISRVEAEDVGVYYCMQHLEYPLTFGQGTKLEIKRGSSSGLPETGGGHHHHHH
notes: also called His-tagged scIV.3; IV.3 scFv
The molecule B2 had a Kd with human FcγRIIA [5] of 0.9 nM.

B3: scIV.3-LPETGG-FAM (scFv)
scFv: QVQLVQSGAEVKKPGASVKVSCKASGYTFTNYGMNWVRQAPGQRLEWMGWLNTYTGESWYPDDFKGRVTITRDTSASTAYMELSSLRSEDTAVYYCARGDYGYDDPLDYWGQGTLVTVSSGAGGSGGGGSGGGGSGGGGSDIVMTQSPLSLPVTPGEPASISCRSSKSLLHTNQNTYLHWFLQKPGQSPQLLIYRMSVLASGVPDRFSGSGSGTDFTLKISRVEAEDVGVYYCMQHLEYPLTFGQGTKLEIKR
modifications: FAM-containing peptide attached site-specifically to the C-terminal sortag (LPET) by sortase
notes: Single chain variable fragment of monoclonal antibody IV.3, C-terminally modified with a FAM peptide by sortase; also called scIV.3-FAM; FAM-conjugated scIV.3; not shown: short semi-rigid linker, sortag LPET and the FAM-containing peptide joined by sortase
Consider B3, for which the figures for the Kd in the assay with human FcγRIIA [6], with human FcγRIIA [7] and with human FcγRIIA [8] were 11 nM, 1 nM and 0.27 nM, respectively.
